US20170198014A1, “POLYPEPTIDES AND THEIR USE FOR TREATING INFLUENZA” ([…] ITS CENTER FOR COMMERCIALIZATION, priority 2014, published 2017)

Tests used:
[1] = molecular target: H1 (A/NewCaledonia/20/1999) (Influenza A virus, UniProt Q6WG00); settings: read-out: affinity constant via yeast surface display
[2] = molecular target: HA of H3N2 A/Hong Kong/1/1968 (Influenza A virus, UniProt Q91MA7)
[3] = stability after loop truncation and trimerization; settings: trimerized, truncation of 3 residues after position 43

B1: ASGMLAISMDTDKISNSFEDCKYFLIELKSAGWTNTIFNDESGKEEIVKMGVDAIICKNISEENYKKFSKKIEIYHAEGDDVNKNISLFLEGELSKISNP (protein)
chain: ASGMLAISMDTDKISNSFEDCKYFLIELKSAGWTNTIFNDESGKEEIVKMGVDAIICKNISEENYKKFSKKIEIYHAEGDDVNKNISLFLEGELSKISNP
Q: For B1, which Kd [1] is on record?
A: 23.2 nM

B2: GIVNVPNPNTTKYQQLARTAVAIYNYHEQAHLCFVENLNVKEQGNYYYITLAACDDAGKKAIYEAKIGVVESAGWTGVEEFKLV (protein)
chain: GIVNVPNPNTTKYQQLARTAVAIYNYHEQAHLCFVENLNVKEQGNYYYITLAACDDAGKKAIYEAKIGVVESAGWTGVEEFKLV
Q: Which binding when trimerized [2] does the source give for B2 here?
A: binds extremely tightly

Q: What about the stability [3] of the same molecule?
A: stability is improved

B3: GIVNVPNCNTTKYQQLARTAVAIYNYHEQAHLTFVENLNCKEQGNYYYITLAATDDAGKKAIYEAKIGVVESAGWTGVEEFKLV (protein)
chain: GIVNVPNCNTTKYQQLARTAVAIYNYHEQAHLTFVENLNCKEQGNYYYITLAATDDAGKKAIYEAKIGVVESAGWTGVEEFKLV
Q: What does the source list for B3?
A: binding when trimerized [2]: binds extremely tightly; stability [3]: stability is improved
